The values below come from IntAct's records for PubMed 20080774.

To fix the notation:
B1: Nuclear factor of activated T-cells 5 (Homo sapiens), O94916-1 (parent)
chain: MPSDFISLLSADLDLESPKSLYSRESVYDLLPKELQLPPSRETSVASMSQTSGGEAGSPPPAVVAADASSAPSSSSMGGACSSFTTSSSPTIYSTSVTDSKAMQVESCSSAVGVSNRGVSEKQLTSNTVQQHPSTPKRHTVLYISPPPEDLLDNSRMSCQDEGCGLESEQSCSMWMEDSPSNFSNMSTSSYNDNTEVPRKSRKRNPKQRPGVKRRDCEESNMDIFDADSAKAPHYVLSQLTTDNKGNSKAGNGTLENQKGTGVKKSPMLCGQYPVKSEGKELKIVVQPETQHRARYLTEGSRGSVKDRTQQGFPTVKLEGHNEPVVLQVFVGNDSGRVKPHGFYQACRVTGRNTTPCKEVDIEGTTVIEVGLDPSNNMTLAVDCVGILKLRNADVEARIGIAGSKKKSTRARLVFRVNIMRKDGSTLTLQTPSSPILCTQPAGVPEILKKSLHSCSVKGEEEVFLIGKNFLKGTKVIFQENVSDENSWKSEAEIDMELFHQNHLIVKVPPYHDQHITLPVSVGIYVVTNAGRSHDVQPFTYTPDPAAAGALNVNVKKEISSPARPCSFEEAMKAMKTTGCNLDKVNIIPNALMTPLIPSSMIKSEDVTPMEVTAEKRSSTIFKTTKSVGSTQQTLENISNIAGNGSFSSPSSSHLPSENEKQQQIQPKAYNPETLTTIQTQDISQPGTFPAVSASSQLPNSDALLQQATQFQTRETQSREILQSDGTVVNLSQLTEASQQQQQSPLQEQAQTLQQQISSNIFPSPNSVSQLQNTIQQLQAGSFTGSTASGSSGSVDLVQQVLEAQQQLSSVLFSAPDGNENVQEQLSADIFQQVSQIQSGVSPGMFSSTEPTVHTRPDNLLPGRAESVHPQSENTLSNQQQQQQQQQQVMESSAAMVMEMQQSICQAAAQIQSELFPSTASANGNLQQSPVYQQTSHMMSALSTNEDMQMQCELFSSPPAVSGNETSTTTTQQVATPGTTMFQTSSSGDGEETGTQAKQIQNSVFQTMVQMQHSGDNQPQVNLFSSTKSMMSVQNSGTQQQGNGLFQQGNEMMSLQSGNFLQQSSHSQAQLFHPQNPIADAQNLSQETQGSLFHSPNPIVHSQTSTTSSEQMQPPMFHSQSTIAVLQGSSVPQDQQSTNIFLSQSPMNNLQTNTVAQEAFFAAPNSISPLQSTSNSEQQAAFQQQAPISHIQTPMLSQEQAQPPQQGLFQPQVALGSLPPNPMPQSQQGTMFQSQHSIVAMQSNSPSQEQQQQQQQQQQQQQQQQQSILFSNQNTMATMASPKQPPPNMIFNPNQNPMANQEQQNQSIFHQQSNMAPMNQEQQPMQFQSQSTVSSLQNPGPTQSESSQTPLFHSSPQIQLVQGSPSSQEQQVTLFLSPASMSALQTSINQQDMQQSPLYSPQNNMPGIQGATSSPQPQATLFHNTAGGTMNQLQNSPGSSQQTSGMFLFGIQNNCSQLLTSGPATLPDQLMAISQPGQPQNEGQPPVTTLLSQQMPENSPLASSINTNQNIEKIDLLVSLQNQGNNLTGSF
partner: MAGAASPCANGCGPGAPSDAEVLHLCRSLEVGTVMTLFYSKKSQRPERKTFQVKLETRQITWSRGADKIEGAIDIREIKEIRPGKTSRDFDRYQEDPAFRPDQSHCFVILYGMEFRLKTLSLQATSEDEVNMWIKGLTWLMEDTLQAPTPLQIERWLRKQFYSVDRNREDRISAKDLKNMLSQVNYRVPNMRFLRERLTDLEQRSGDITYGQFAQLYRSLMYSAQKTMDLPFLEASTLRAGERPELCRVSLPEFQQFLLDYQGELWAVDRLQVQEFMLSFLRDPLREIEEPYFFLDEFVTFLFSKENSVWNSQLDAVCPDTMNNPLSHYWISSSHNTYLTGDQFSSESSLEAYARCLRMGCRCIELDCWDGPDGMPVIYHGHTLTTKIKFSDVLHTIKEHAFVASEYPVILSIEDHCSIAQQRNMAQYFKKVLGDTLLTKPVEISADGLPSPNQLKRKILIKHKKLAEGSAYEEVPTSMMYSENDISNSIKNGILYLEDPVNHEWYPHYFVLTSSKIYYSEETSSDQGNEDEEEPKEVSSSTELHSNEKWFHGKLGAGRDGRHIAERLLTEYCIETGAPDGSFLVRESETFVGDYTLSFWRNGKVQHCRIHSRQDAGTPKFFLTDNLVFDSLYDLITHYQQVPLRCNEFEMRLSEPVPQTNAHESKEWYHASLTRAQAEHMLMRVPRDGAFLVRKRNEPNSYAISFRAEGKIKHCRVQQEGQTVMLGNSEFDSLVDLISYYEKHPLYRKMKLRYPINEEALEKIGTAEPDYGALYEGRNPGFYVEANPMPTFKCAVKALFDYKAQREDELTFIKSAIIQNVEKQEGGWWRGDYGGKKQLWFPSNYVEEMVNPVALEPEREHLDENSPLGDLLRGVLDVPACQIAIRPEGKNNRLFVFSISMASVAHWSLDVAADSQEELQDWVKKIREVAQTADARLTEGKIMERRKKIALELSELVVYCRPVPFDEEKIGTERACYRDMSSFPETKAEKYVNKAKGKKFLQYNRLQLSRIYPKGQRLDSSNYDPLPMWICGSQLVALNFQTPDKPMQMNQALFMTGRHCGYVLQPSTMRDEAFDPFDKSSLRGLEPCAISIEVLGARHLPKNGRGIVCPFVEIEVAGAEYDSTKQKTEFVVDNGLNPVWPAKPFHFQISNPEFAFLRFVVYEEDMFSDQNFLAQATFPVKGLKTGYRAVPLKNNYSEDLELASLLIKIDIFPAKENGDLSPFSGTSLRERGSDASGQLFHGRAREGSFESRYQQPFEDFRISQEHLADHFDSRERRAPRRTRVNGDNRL

The variants in this experiment derive from B1. The conditions noted are these: with plcg1_human PLCG1, P19174.
Consider Y143A, for which the “effect of a mutation on the interaction” value is given as “decreasing interaction”.
